The term Kd denotes the constant that tells how readily two partners part at equilibrium. For orientation: koff means the first-order rate constant of dissociation. Broadly, the kon is a measure of how fast the partners come together. A low value points to slow association.

Positions count from the first letter of the chain named. Ends that are not written are not given here.

The chains are these.
T1: epitope tag peptide SRLEEELRRRLTE (SEQ ID NO: 2), biotinylated (also: biotinylated (site and linker not given here))
T1 construct: Rationally designed peptide; also called ALFA-tag
T1 peptide: SRLEEELRRRLTE

B1: wtNbALFA (original alpaca-derived NbALFA single-domain antibody) (VHH)
VHH: EVQLQESGGGLVQPGGSLRLSCTASGVTISALNAMAMGWYRQAPGERRVMVAAVSERGNAMYRESVQGRFTVTRDFTNKMVSLQMDNLKPEDTAVYYCHVLEDRVDSFHDYWGQGTQVTVSS
notes: VHH; Any purification tag on the construct used in the BLI and SpA assays is not described; also called wild type NbALFA
B2: Variant 7 of humanized NbALFA (VHH)
VHH: EVQLVESGGGLVQPGGSLRLSCAASGVTISALNAMAMGWFRQAPGKGRELVAAVSERGNAMYRESVQGRFTISRDNAKRMVYLQMNSLRAEDTAVYYCHVLEDRVDSFHDYWGQGTQVTVSS
notes: CDR-grafted variant, produced in E. coli and purified by IMAC; The tag is not described
B3: Variant 3 of humanized NbALFA (VHH)
VHH: B2 VHH with V5L, R48L, L50F, A77S, R79N, M80T, V81L, H99A, V100A, Q117L
notes: as for B2
B4: Variant 6 of humanized NbALFA (VHH)
VHH: EVQLQASGGGFVQPGGSLRLSCAASGVTISALNAMAMGWFRQAPGKEREFVSAVSERGNAMYRESVQGRFTISRDNSKNTVYLQMNSLRAEDTATYYCAALEDRVDSFHDYWGQGTQVTVSS
notes: as for B2
B5: Variant 4 of humanized NbALFA (VHH)
VHH: EVQLLESGGGLVQPGGSLRLSCAASGVTISALNAMAMGWFRQAPGKGLEFVAAVSERGNAYYRDSVKGRFTISRDNSKNTLYLQMNSLRAEDTAVYYCAALEDRVDSFHDYWGQGTLVTVSS
notes: as for B2
B6: Variant 5 of humanized NbALFA (VHH)
VHH: B4 VHH with V54I, M61Y, E64D, Q67K
notes: as for B2
B7: Variant 11 of humanized NbALFA (VHH)
VHH: B2 VHH with F40Y, G47R, L50M, Q67K
B8: Variant 12 of humanized NbALFA (VHH)
VHH: B2 VHH with F40Y, G47R, L50M, A60T, Q67K
B9: Variant 8 of humanized NbALFA (VHH)
VHH: B2 VHH with G47R, L50M
notes: Further engineered humanized variant; Any tag on the tested construct is not described
B10: Variant 15 of humanized NbALFA (VHH)
VHH: B5 VHH with L5V, F40Y, G47R, L48R, F50M, A60T, A99H, A100V, L117Q
B11: Variant 9 of humanized NbALFA (VHH)
VHH: B2 VHH with F40Y, G47R, L50M
notes: as for B9
B12: Variant 14 of humanized NbALFA (VHH)
VHH: B2 VHH with F40Y, G47R, L50M, Q67K, A77S, R79N, M80T, V81L
B13: Variant 13 of humanized NbALFA (VHH)
VHH: B2 VHH with F40Y, G47R, L50M, A60T, M61Y, E64D, Q67K
B14: Variant 10 of humanized NbALFA (VHH)
VHH: B2 VHH with F40Y, G47R, L50M, A60T

The target in the first assay is T1, epitope tag peptide SRLEEELRRRLTE (SEQ …). Briefly: BLI (Octet), biotinylated peptide on SAX2.0 biosensors, 1:1 global fit. On the procedure:
(§1) To determine the affinity of humanized NbALFA variants to the epitope tag of SEQ ID NO: 2, an Octet RED96 or an Octet HTX from ForteBio was utilized. The measurement principle is based on biolayer interferometry (BLI). SAX2.0 biosensors were soaked for 10 min in kinetic buffer (KB), supplied by the manufacturer of the instrument. At first, a 60 or 120 sec baseline in KB was measured, followed by a loading step of 240 sec with 83 ng/ml of biotinylated peptide of SEQ ID NO: 2. After loading, free streptavidin entities on the biosensor were quenched during a 120 sec incubation step in a 100 μg/ml biocytin solution. Subsequently, a 60 to 600 sec baseline in KB was measured followed by association of the VHH. The VHH was applied with a maximal concentration of 10 nM and was 1:1 serial diluted in KB. As a reference, only KB was measured. Association was performed for 900 sec, followed by a dissociation time of 1500 sec in KB. The signal of the reference well was subtracted from the signal of all other biosensors and the signals of these processed data were aligned to the average of the second baseline. For inter-step correction, the data were aligned to the dissociation step and Savitzky-Golay filtering was applied to all curves. Association and dissociations were globally fitted using a 1:1 Langmuir binding model.
In general terms: Biolayer interferometry detects binding as a change in optical thickness at a sensor tip.
As to B1, binding was characterised by a dissociation constant (Kd) of 0.16 nM, the koff was determined as 6.37e-05 s⁻¹ and the kon turned out to be 399000 M⁻¹ s⁻¹.

Turning to B2, binding was put at a Kd of 1.86 nM, the koff stood at 0.000276 s⁻¹ and the kon is 149000 M⁻¹ s⁻¹.

The target is the same in a further assay. Briefly: biolayer interferometry (Octet); biotinylated peptide of SEQ ID NO: 2 loaded on SAX2.0 biosensors; VHH in solution, 1:1 serial dilution (Method 1).
Excerpt: FIG. 1: Affinity of humanized NbALFA variants generated by CDR grafting. A, affinity measurements of the original alpaca-derived NbALFA (wtNbALFA) for the peptide of SEQ ID NO: 2. B, affinity measurements of variant 3 for the peptide of SEQ ID NO: 2. C, affinity measurements of variant 4 for the peptide of SEQ ID NO: 2. D, affinity measurements of variant 5 for the peptide of SEQ ID NO: 2. E, affinity measurements of variant 6 for the peptide of SEQ ID NO: 2. F, affinity measurements of variant 7 for the peptide of SEQ ID NO: 2. Affinity was determined using biolayer interferometry as described in Method 1 of the Examples.
as §1
Regarding B3, the binding result is “no binding”.

For the molecule B4, the binding result is “no binding”.

B5: the binding result was “no binding”.

B6: the binding result is listed as “no binding”.

For another assay the target is unchanged. The assay can be described thus: BLI (Octet), biotinylated peptide on SAX2.0 biosensors, 1:1 global fit. The source holds these as a separate data set. On the procedure: as §1
B1 displayed a Kd of 0.16 nM, a koff of 6.37e-05 s⁻¹ and a kon of 399000 M⁻¹ s⁻¹.

Regarding B7, binding was put at a Kd of 0.0595 nM, the koff was 3.7e-05 s⁻¹ and the kon was 622000 M⁻¹ s⁻¹.

As for B8, the Kd stood at 0.248 nM, the koff worked out at 0.000151 s⁻¹ and the kon was 609000 M⁻¹ s⁻¹.

The molecule B9 displayed a Kd of 0.263 nM, a koff of 0.000263 s⁻¹ and a kon of 1e+06 M⁻¹ s⁻¹.

In turn, B10 returned a koff of 0.000302 s⁻¹ and a kon of 1.59e+06 M⁻¹ s⁻¹.

In turn, B11 gave a Kd of 0.182 nM, a koff of 3.69e-05 s⁻¹ and a kon of 203000 M⁻¹ s⁻¹.

In turn, B12 gave a Kd of 0.218 nM, a koff of 0.00013 s⁻¹ and a kon of 596000 M⁻¹ s⁻¹.

B13 had a Kd of 0.217 nM, a koff of 0.000167 s⁻¹ and a kon of 767000 M⁻¹ s⁻¹.

On to B14, for which the Kd was 0.306 nM, the koff was found to be 0.000147 s⁻¹ and the kon was found to be 480000 M⁻¹ s⁻¹.

(Values after patent publication US20260008872A1 (NANO TAG BIOTECHNOLOGIES, published 2026).)
